B1: HDV Ribozyme (parent)
chain: GGCCGGCAUGGUCCCAGCCUCCUCGCUGGCGCCGGCUGGGCAACAUUCCGAGGGGACCGUCCCCUCGGUAAUGGCGAAUGGGACCCA

Variants of: B1
Assay: self-cleavage, relative activity (ratio to wild type); higher = more cleavage; co-transcriptional
C14U U27C showed a self-cleavage of 0.723.
Variant C14U U27G has a self-cleavage of 1.11.
Work on C14U U27A yielded a self-cleavage of 1.03.
C14U G17A showed a self-cleavage of 0.514.
C14U G17C gave a self-cleavage of 0.156.
C14U G17U gave a self-cleavage of 0.511.
With C14U G67U the self-cleavage was 1.08.
Variant C14U A71C has a self-cleavage of 0.831.
With C14U A71G the self-cleavage was 0.883.
In the case of C14U A71U, the self-cleavage is reported as 1.1.
For C15A C22A, the self-cleavage was 0.111.
C15A C22G showed a self-cleavage of 0.113.
Variant C15A C22U has a self-cleavage of 0.231.
Work on C14U G25A yielded a self-cleavage of 0.115.
With C14U G25U the self-cleavage was 0.59.
In the case of C14U C30G, the self-cleavage is reported as 0.0923.
C14U C57A gave a self-cleavage of 1.07.
C15A C61A gave a self-cleavage of 0.831.
C15A C24U showed a self-cleavage of 0.0811.
C15A C24A gave a self-cleavage of 0.378.
Variant C14U G76U has a self-cleavage of 1.14.
For C14U C33A, the self-cleavage was 0.201.
For C14U C33G, the self-cleavage was 0.123.
Work on C14U C58G yielded a self-cleavage of 1.17.
With C14U C58U the self-cleavage was 0.991.
In the case of C15A C66U, the self-cleavage is reported as 0.909.
In the case of C15A C66G, the self-cleavage is reported as 0.688.
C15A C66A showed a self-cleavage of 0.684.
In the case of C15A A42G, the self-cleavage is reported as 0.104.
Work on C15A A42C yielded a self-cleavage of 0.122.
C14U C63G gave a self-cleavage of 0.831.
With C14U C63A the self-cleavage was 0.957.
Variant C14U C63U has a self-cleavage of 0.927.
With C14U U46C the self-cleavage was 1.03.
Work on C14U U79A yielded a self-cleavage of 1.02.
C14U U23C gave a self-cleavage of 1.47.
With C14U U23G the self-cleavage was 0.712.
Work on C14U G29A yielded a self-cleavage of 0.188.
With C14U G29C the self-cleavage was 0.0941.
Variant C14U C64U has a self-cleavage of 0.972.
For C14U C64A, the self-cleavage was 0.939.
Variant C14U G31U has a self-cleavage of 0.429.
C14U G31C showed a self-cleavage of 0.342.
For C14U G28C, the self-cleavage was 0.237.
For C14U G28A, the self-cleavage was 0.0811.
With C14U C44U the self-cleavage was 0.831.
Work on C14U C15A yielded a self-cleavage of 0.475.
For C14U G39C, the self-cleavage was 0.262.
Variant C14U G39A has a self-cleavage of 0.284.
C15A C64G showed a self-cleavage of 0.81.
C15A C64U showed a self-cleavage of 0.623.
C15A C64A showed a self-cleavage of 0.689.
For C15A G25C, the self-cleavage was 0.0692.
C14U C66A gave a self-cleavage of 0.877.
C14U C66G showed a self-cleavage of 0.884.
Variant C15A C18G has a self-cleavage of 0.111.
Variant C15A C18A has a self-cleavage of 0.115.
Variant C14U C24U has a self-cleavage of 0.658.
With C15A A70U the self-cleavage was 0.723.
In the case of C15A A70G, the self-cleavage is reported as 0.755.
Work on C14U C86G yielded a self-cleavage of 1.12.
Work on C14U C86A yielded a self-cleavage of 1.1.
C14U C86U showed a self-cleavage of 0.875.
Work on C14U C62G yielded a self-cleavage of 0.751.
In the case of C14U C62U, the self-cleavage is reported as 0.923.
For C14U G55U, the self-cleavage was 1.24.
With C14U G50A the self-cleavage was 1.01.
In the case of C14U U69A, the self-cleavage is reported as 1.02.
In the case of C15A C30A, the self-cleavage is reported as 0.326.
C15A C30G showed a self-cleavage of 0.138.
Variant C14U G34U has a self-cleavage of 0.248.
Work on C14U G82C yielded a self-cleavage of 0.415.
With C14U G82U the self-cleavage was 0.494.
C14U C84A showed a self-cleavage of 0.643.
Work on C14U C84G yielded a self-cleavage of 0.914.
For C14U G35C, the self-cleavage was 0.123.
In the case of C14U G35U, the self-cleavage is reported as 0.288.
Work on C14U G81C yielded a self-cleavage of 0.806.
C15A A87C showed a self-cleavage of 0.654.
With C15A A87G the self-cleavage was 0.776.
With C15A A87U the self-cleavage was 0.746.
Variant C14U C36A has a self-cleavage of 0.128.
C14U C41U gave a self-cleavage of 1.11.
C15A A77U showed a self-cleavage of 0.302.
Work on C15A C19A yielded a self-cleavage of 0.147.
Variant C15A G40A has a self-cleavage of 0.77.
Work on C15A A78U yielded a self-cleavage of 0.0639.
In the case of C15A A78G, the self-cleavage is reported as 0.447.
Work on C14U G68A yielded a self-cleavage of 0.95.
In the case of C14U G68U, the self-cleavage is reported as 1.04.
Variant C14U G74C has a self-cleavage of 0.369.
Variant C14U G74A has a self-cleavage of 0.604.
Work on C15A G38U yielded a self-cleavage of 0.
C15A G38C gave a self-cleavage of 0.0831.
For C15A C32A, the self-cleavage was 0.151.
C15A C32G gave a self-cleavage of 0.107.
Variant C15A C75G has a self-cleavage of 0.142.
In the case of C15A C85U, the self-cleavage is reported as 0.755.
Variant C15A C85A has a self-cleavage of 0.623.
Variant C14U G54A has a self-cleavage of 1.04.
For C14U G54C, the self-cleavage was 1.2.
C15A A71C showed a self-cleavage of 0.35.
C15A A71G gave a self-cleavage of 0.443.
Work on C15A G50A yielded a self-cleavage of 0.527.
With C14U C32G the self-cleavage was 0.0462.
C15A A83U showed a self-cleavage of 0.0639.
With C15A A83G the self-cleavage was 0.284.
C15A C48U gave a self-cleavage of 0.54.
C14U U60C gave a self-cleavage of 1.11.
C14U U60G showed a self-cleavage of 0.772.
C14U U60A gave a self-cleavage of 1.23.
C14U G73C gave a self-cleavage of 0.252.
For C14U G73A, the self-cleavage was 0.831.
With C14U C85A the self-cleavage was 0.978.
With C15A C33G the self-cleavage was 0.
Variant C14U U37G has a self-cleavage of 0.199.
With C14U C21A the self-cleavage was 0.
For C14U C21U, the self-cleavage was 0.237.
C14U U20A showed a self-cleavage of 0.145.
Variant C14U U20G has a self-cleavage of 0.145.
With C14U C18G the self-cleavage was 0.0875.
C14U A83U gave a self-cleavage of 0.378.
C14U A83G gave a self-cleavage of 0.54.
Work on C15A G28C yielded a self-cleavage of 0.0449.
Variant C15A C41G has a self-cleavage of 0.285.
Variant C15A C41U has a self-cleavage of 0.399.
C15A C41A showed a self-cleavage of 0.655.
C15A G39U showed a self-cleavage of 0.177.
For C15A G39C, the self-cleavage was 0.107.
In the case of C14U G53U, the self-cleavage is reported as 1.16.
In the case of C14U G53A, the self-cleavage is reported as 1.11.
C14U G53C gave a self-cleavage of 1.07.
In the case of C14U C48A, the self-cleavage is reported as 0.928.
C14U C48G gave a self-cleavage of 1.08.
Work on C15A A56C yielded a self-cleavage of 0.782.
In the case of C14U U72C, the self-cleavage is reported as 0.532.
C14U G59U gave a self-cleavage of 0.997.
In the case of C14U G59A, the self-cleavage is reported as 1.31.
In the case of C14U C19G, the self-cleavage is reported as 0.0396.
For C14U C19U, the self-cleavage was 0.0723.
With C14U A77C the self-cleavage was 0.249.
For C14U U65A, the self-cleavage was 1.22.
For C14U U65G, the self-cleavage was 0.997.
C14U U65C gave a self-cleavage of 0.997.
For C14U C49A, the self-cleavage was 1.37.
C14U C49U gave a self-cleavage of 0.942.
C15A C63A gave a self-cleavage of 0.403.
With C14U G38C the self-cleavage was 0.158.
C14U G38A gave a self-cleavage of 0.0652.
For C15A A51C, the self-cleavage was 1.14.
For C15A A51G, the self-cleavage was 0.923.
Work on C15A A51U yielded a self-cleavage of 0.573.
Variant C14U C75U has a self-cleavage of 0.138.
C15A G34A gave a self-cleavage of 0.0723.
Variant C14U U47C has a self-cleavage of 1.13.
With C14U U47G the self-cleavage was 0.939.
Work on C14U A78G yielded a self-cleavage of 0.831.
Work on C14U A78U yielded a self-cleavage of 0.156.
For C14U C61U, the self-cleavage was 1.22.
C14U C61A showed a self-cleavage of 1.14.
Variant C14U A87G has a self-cleavage of 1.07.
Variant C15A C58U has a self-cleavage of 0.458.
In the case of C14U G52C, the self-cleavage is reported as 1.1.
For C14U G52A, the self-cleavage was 0.973.
C15A C84G gave a self-cleavage of 0.244.
C14U C22A showed a self-cleavage of 0.339.
Work on C15A G17C yielded a self-cleavage of 0.0978.

Source: the RNAGym collection of RNA variant scans (doi:10.7554/elife.80360)
